IntAct's records for PubMed 15070730

B1: Tumor protein p73 (Homo sapiens), O15350-2 (parent)
chain: MAQSTATSPDGGTTFEHLWSSLEPDSTYFDLPQSSRGNNEVVGGTDSSMDVFHLEGMTTSVMAQFNLLSSTMDQMSSRAASASPYTPEHAASVPTHSPYAQPSSTFDTMSPAPVIPSNTDYPGPHHFEVTFQQSSTAKSATWTYSPLLKKLYCQIAKTCPIQIKVSTPPPPGTAIRAMPVYKKAEHVTDVVKRCPNHELGRDFNEGQSAPASHLIRVEGNNLSQYVDDPVTGRQSVVVPYEPPQVGTEFTTILYNFMCNSSCVGGMNRRPILIIITLEMRDGQVLGRRSFEGRICACPGRDRKADEDHYREQQALNESSAKNGAASKRAFKQSPPAVPALGAGVKKRRHGDEDTYYLQVRGRENFEILMKLKESLELMELVPQPLVDSYRQQQQLLQRPSHLQPPSYGPVLSPMNKVHGGMNKLPSVNQLVGQPPPHSSAATPNLGPVGPGMLNNHGHAVPANGEMSSSHSAQSMVSGSHCTPPPPYHADPSLVRTWGP
partner: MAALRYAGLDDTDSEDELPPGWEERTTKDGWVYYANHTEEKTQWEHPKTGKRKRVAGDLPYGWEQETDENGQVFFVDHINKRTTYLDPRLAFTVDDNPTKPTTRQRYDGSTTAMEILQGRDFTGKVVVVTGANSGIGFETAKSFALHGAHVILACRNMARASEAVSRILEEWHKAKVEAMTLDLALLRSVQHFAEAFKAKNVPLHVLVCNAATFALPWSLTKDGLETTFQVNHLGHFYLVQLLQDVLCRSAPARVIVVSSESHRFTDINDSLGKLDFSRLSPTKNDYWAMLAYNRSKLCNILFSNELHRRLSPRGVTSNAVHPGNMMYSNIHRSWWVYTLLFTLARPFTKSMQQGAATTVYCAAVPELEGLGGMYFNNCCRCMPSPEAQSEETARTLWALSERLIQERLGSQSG
B2: WW domain-containing oxidoreductase (Homo sapiens), Q9NZC7 (parent)
chain: B1 partner
partner: B1 chain

Variants of: B1
Conditions: with wwox_human WWOX, Q9NZC7

| effect of a mutation on the interaction | Variant |
| --- | --- |
| disrupting interaction strength | MAQSTATSPDGGTTFEHLWSSLEPDSTYFDLPQSSRGNNEVVGGTDSSMDVFHLEGMTTSVMAQFNLLSSTMDQMSSRAASASPYTPEHAASVPTHSPYAQPSSTFDTMSPAPVIPSNTDYPGPHHFEVTFQQSSTAKSATWTYSPLLKKLYCQIAKTCPIQIKVSTPPPPGTAIRAMPVYKKAEHVTDVVKRCPNHELGRDFNEGQSAPASHLIRVEGNNLSQYVDDPVTGRQSVVVPYEPPQVGTEFTTILYNFMCNSSCVGGMNRRPILIIITLEMRDGQVLGRRSFEGRICACPGRDRKADEDHYREQQALNESSAKNGAASKRAFKQSPPAVPALGAGVKKRRHGDEDTYYLQVRGRENFEILMKLKESLELMELVPQPLVDSYRQQQQLLQRPSHLQPPSYGPVLSPMNKVHGGMNKLPSVNQLVGQPPPHSSAATPNLGPVGPGMLNNHGHAVPANGEMSSSHSAQSMVSGSHCTPPPPAHADPSLVRTWGP [Y487A] |

Variants of: B2
Conditions: with TP73, O15350-2

| effect of a mutation on the interaction | Variant |
| --- | --- |
| with no effect | MAALRYAGLDDTDSEDELPPGWEERTTKDGWVFYANHTEEKTQWEHPKTGKRKRVAGDLPYGWEQETDENGQVFFVDHINKRTTYLDPRLAFTVDDNPTKPTTRQRYDGSTTAMEILQGRDFTGKVVVVTGANSGIGFETAKSFALHGAHVILACRNMARASEAVSRILEEWHKAKVEAMTLDLALLRSVQHFAEAFKAKNVPLHVLVCNAATFALPWSLTKDGLETTFQVNHLGHFYLVQLLQDVLCRSAPARVIVVSSESHRFTDINDSLGKLDFSRLSPTKNDYWAMLAYNRSKLCNILFSNELHRRLSPRGVTSNAVHPGNMMYSNIHRSWWVYTLLFTLARPFTKSMQQGAATTVYCAAVPELEGLGGMYFNNCCRCMPSPEAQSEETARTLWALSERLIQERLGSQSG [Y33F] |
| decreasing interaction strength | MAALRYAGLDDTDSEDELPPGWEERTTKDGWVRYANHTEEKTQWEHPKTGKRKRVAGDLPYGWEQETDENGQVFFVDHINKRTTYLDPRLAFTVDDNPTKPTTRQRYDGSTTAMEILQGRDFTGKVVVVTGANSGIGFETAKSFALHGAHVILACRNMARASEAVSRILEEWHKAKVEAMTLDLALLRSVQHFAEAFKAKNVPLHVLVCNAATFALPWSLTKDGLETTFQVNHLGHFYLVQLLQDVLCRSAPARVIVVSSESHRFTDINDSLGKLDFSRLSPTKNDYWAMLAYNRSKLCNILFSNELHRRLSPRGVTSNAVHPGNMMYSNIHRSWWVYTLLFTLARPFTKSMQQGAATTVYCAAVPELEGLGGMYFNNCCRCMPSPEAQSEETARTLWALSERLIQERLGSQSG [Y33R] |

Variants of: B2
Conditions: with TP73, O15350-2
Remark: another data set of the same source

| effect of a mutation on the interaction | Variant |
| --- | --- |
| disrupting interaction strength | MAALRYAGLDDTDSEDELPPGWEERTTKDGWVRYANHTEEKTQWEHPKTGKRKRVAGDLPYGWEQETDENGQVFFVDHINKRTTYLDPRLAFTVDDNPTKPTTRQRYDGSTTAMEILQGRDFTGKVVVVTGANSGIGFETAKSFALHGAHVILACRNMARASEAVSRILEEWHKAKVEAMTLDLALLRSVQHFAEAFKAKNVPLHVLVCNAATFALPWSLTKDGLETTFQVNHLGHFYLVQLLQDVLCRSAPARVIVVSSESHRFTDINDSLGKLDFSRLSPTKNDYWAMLAYNRSKLCNILFSNELHRRLSPRGVTSNAVHPGNMMYSNIHRSWWVYTLLFTLARPFTKSMQQGAATTVYCAAVPELEGLGGMYFNNCCRCMPSPEAQSEETARTLWALSERLIQERLGSQSG [Y33R] |
| with no effect | MAALRYAGLDDTDSEDELPPGWEERTTKDGWVYYANHTEEKTQWEHPKTGKRKRVAGDLPRGWEQETDENGQVFFVDHINKRTTYLDPRLAFTVDDNPTKPTTRQRYDGSTTAMEILQGRDFTGKVVVVTGANSGIGFETAKSFALHGAHVILACRNMARASEAVSRILEEWHKAKVEAMTLDLALLRSVQHFAEAFKAKNVPLHVLVCNAATFALPWSLTKDGLETTFQVNHLGHFYLVQLLQDVLCRSAPARVIVVSSESHRFTDINDSLGKLDFSRLSPTKNDYWAMLAYNRSKLCNILFSNELHRRLSPRGVTSNAVHPGNMMYSNIHRSWWVYTLLFTLARPFTKSMQQGAATTVYCAAVPELEGLGGMYFNNCCRCMPSPEAQSEETARTLWALSERLIQERLGSQSG [Y61R] |
